Test results reported in patent US20180170992A1.

Assays:
[1] = biological target: recombinant human IL13Rα2hFc chimera (R&D Systems) (human) (UniProt Q14627); experiment: SPR, Biacore 3000; mAb immobilised, rhIL13Rα2 in the flow; 1:1 model
[2] = biological target: IL13Rα2 expressed on the surface of human glioma cells (A172, N10, U251, U87, U118, U373, GBM12, GBM43) and in GBM tissue (human) (UniProt Q14627); experiment: flow cytometry on N10 glioma cells, isotype control [left table]
[3] = biological target: IL13Rα2 expressed on the surface of human glioma cells (A172, N10, U251, U87, U118, U373, GBM12, GBM43) and in GBM tissue (human) (UniProt Q14627); experiment: flow cytometry on N10 glioma cells pre-incubated with 10x excess rhIL13 [left table]
[4] = biological target: Pngase F-treated rhIL13Rα2hFc (human) (UniProt Q14627); experiment: plate-bound ELISA on Pngase F-treated rhIL13Rα2hFc

“monoclonal antibody to IL13Rα2 (clone B-D13), Santa Cruz Biotechnology” showed a Kd [1] of 46.1 nM, a koff [1] of 0.00499 s⁻¹ and a kon [1] of 108000 M⁻¹ s⁻¹.
Work on control mouse IgG (antibody) yielded a % positive cells [2] of 1.9% and a % positive cells [3] of 0.9%.
“mAb to IL13Rα2 (clone 83807), R&D Systems (antibody)” gave a percent decrease of binding against untreated protein [4] of 80%, a Kd [1] of 104 nM and a koff [1] of 0.00231 s⁻¹. For the same substance, the kon [1] was 22300 M⁻¹ s⁻¹.
